Target: T1, Heat shock transcription factor-1 (HSF-1) (human (endogenous in HCT-116)), Q00613
T1 chain: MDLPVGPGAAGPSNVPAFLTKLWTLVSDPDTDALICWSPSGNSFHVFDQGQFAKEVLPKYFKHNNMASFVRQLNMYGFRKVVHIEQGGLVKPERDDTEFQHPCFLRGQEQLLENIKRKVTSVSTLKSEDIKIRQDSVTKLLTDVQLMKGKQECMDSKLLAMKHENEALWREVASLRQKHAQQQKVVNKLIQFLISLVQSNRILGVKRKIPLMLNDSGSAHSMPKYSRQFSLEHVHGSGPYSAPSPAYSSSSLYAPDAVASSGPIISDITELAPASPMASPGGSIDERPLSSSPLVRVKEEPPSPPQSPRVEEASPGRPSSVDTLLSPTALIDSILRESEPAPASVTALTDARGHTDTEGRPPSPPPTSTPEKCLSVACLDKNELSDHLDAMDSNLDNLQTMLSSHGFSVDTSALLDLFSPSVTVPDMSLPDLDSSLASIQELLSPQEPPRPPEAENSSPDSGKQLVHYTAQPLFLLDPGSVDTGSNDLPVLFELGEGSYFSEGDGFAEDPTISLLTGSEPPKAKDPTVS
Assay: cross-linking; HCT-116 cell lysates (control, heat shock, vitexin-treated); 10 ug protein with 2 mM glutaraldehyde, room temperature, 30 min, stopped with lysine; SDS-PAGE and anti-HSF-1 blot; vitexin treatment said to inhibit oligomerization
Details: remark: other sources report otherwise

B1: Heat shock transcription factor-1 (HSF-1), Q00613 1-529 (natural protein)
chain: T1 chain
stoichiometry N: 3

From article PMC5762521
